Measured values taken from the supplement of paper PMC12764529.
± gives the half width of the 95% confidence interval.

How the values were obtained:
[1] = folding stability dG unfold from chymotrypsin proteolysis; higher = more stable
How it was run: (§1)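 Only designs with AlphaFold2 dimer inter-PAE above 15 were retained; each was a mini-protein under 80 residues with no cysteine, in a PA-tagged cDNA display construct. After digestion with trypsin and chymotrypsin and sequencing, K50 was inferred by Bayesian fitting of counts, and unfolding free energy was derived per protease or combined against a sequence-predicted unfolded-state K50 and a shared folded-state K50.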

[2] = folding stability dG unfold from trypsin proteolysis; higher = more stable
How it was run: as §1

[3] = folding stability dG unfold (combined trypsin and chymotrypsin); higher = more stable
How it was run: as §1

Row | Sequence | folding stability dG unfold [1] [kcal/mol] | folding stability dG unfold [2] [kcal/mol] | folding stability dG unfold [3] [kcal/mol]
1 | SAGGKKYKVKVVSVEYDKETKEVTVKVEFEDNKVVVEKKVKVKLPPVKIEFSEEDLKEGKVEIKIEFSAGGS [r16_809_TrROS_Hall] | 2.63 ± 0.049 | 1.46 ± 0.11 | 2.27 ± 0.1
2 | SAGGSAGGSAGGKIKVPPGAIILVETESGEWKEIKPGDEIELKNSKVYIFNENGEKIELPSAGGSAGGSAGG [r7_54_TrROS_Hall] | 1.28 ± 0.092 | 0.82 ± 0.11 | 1.28 ± 0.18
3 | SAGLVVTKLPGDGTLRITLPPPGAPLVLTIPLDPGNGTLSVTVTRPDGRSETYTFPGGSIDEVIERLLSAGG [r19_159_JUSTAS] | 2.902 ± 0.021 | 2.37 ± 0.074 | 2.72 ± 0.093
4 | SAGGSAGGSAGGMTVTLKAPDGKWLTVPVDPEDPKAVKEAVEELAAKGHPVVEVSTDEKSAGGSAGGSAGGS [r10_231_JUSTAS] | 0.0542 ± 0.097 | 0.555 ± 0.025 | 0.355 ± 0.059
5 | SGSTTLKTTTIPEGPLTVETTISPDGVVTGTIYDPEGKKIADYTMTYTWTTLPNGEKRLETVTVTINLGLSA [r9_434_JUSTAS] | 2.55 ± 0.063 | 1.9 ± 0.05 | 2.35 ± 0.07
6 | SAGGSAMTPVTIELPFEVEADDPEEAIKKAKELAEKLGLKPVEIKEIEVEPGNPKKVTVLMKATILSAGGSA [r15_183_JUSTAS] | 1.36 ± 0.049 | 1.74 ± 0.066 | 1.6 ± 0.071
7 | SAGGSAGGSAGGEAKIKLEVEETPGGLVIRAEVEVDGKLYEVELRIKGDEIVEVKIKPLDSAGGSAGGSAGG [r7_187_TrROS_Hall] | 2.62 ± 0.2 | 2.13 ± 0.097 | 2.5 ± 0.17
8 | SAGGSAGGSAGMSVRVIEGDPALAKKFIEEHPDEIVSVEVTPHPETGTYTYVFVFKGPPKSAGGSAGGSAGG [r17_79_TrMRF] | 2.44 ± 0.041 | 2.33 ± 0.086 | 2.39 ± 0.091
9 | SSEKVELAKKYLKEKGIPIKEFKEITPTGITILAPNGKWITISVKPGDLNEITINPKKSSDGGYENDIPYSA [r9_809_JUSTAS] | 0.92 ± 0.09 | 0.215 ± 0.049 | 0.669 ± 0.088
10 | SAGGSAGGSAGGSMKVILDKKNNELYILLKDENGKLLLAKITLLPNGEIKIEVYDLKDLSAGGSAGGSAGGS [r4_434_TrROS_Hall] | 3.98 ± 0.1 | 2.27 ± 0.066 | 3.56 ± 0.13
11 | SAGGATAVIADFPLPEGTLRVAVVKKDDKPYVFVFPSGISAEELKKILEEKLGVDIKKVEVKTVSTADESAG [r5_181_TrMRF] | 2.04 ± 0.022 | 1.11 ± 0.053 | 1.7 ± 0.093
12 | SAGMTTTLTKTEKFPDGTTVTYTTVTAPDGTPLTATATYDPNNPNKATTTTTDPATGTTTTTTTTITGGSAG [r5_345_JUSTAS] | 0.674 ± 0.11 | 1.03 ± 0.065 | 0.852 ± 0.12
13 | SAGGSAGGSAGGSGYTVKITLKNPDGTESTITISGTGSKEEIINSIKKKYPNNVTKVIESAGGSAGGSAGGS [r4_412_JUSTAS] | 1.94 ± 0.069 | 1.37 ± 0.16 | 1.53 ± 0.31
14 | GLAPRVYEVDALVTDENGVPRLYRVLVVETPLPDGTYRAVAFARDLDTTETRVLTLVSDRAVIGPDVPLTAS [r1_14_TrMRF] | 2.24 ± 0.12 | 2.07 ± 0.044 | 2.21 ± 0.15
15 | SAGGSAGGSEITIFIKGLPDPEAIADQIADAFGYPVKDVDVQRMPNNPWMMITVTYNGKEITISAGGSAGGS [r12_935_TrROS] | 1.97 ± 0.03 | 1.58 ± 0.022 | 1.86 ± 0.083
16 | SAGGSASPSEVRTITATLPGGVVREFEVKMPPGTTVYIPEEGKTITVPPDSSLPLPPDVSVEVRLESAGGSA [r15_152_JUSTAS] | -0.106 ± 0.021 | -0.353 ± 0.017 | -0.148 ± 0.058
17 | SAGMEELAKELAEKLAEELPPGWKIVEIKVERLEDGTLRVRITIYRLDENGKLVEKREIEIEIPLEELSAGG [r19_28_TrROS_Hall] | 4.63 ± 0.081 | 3.91 ± 0.22 | 4.5 ± 0.15
18 | SAGWFVRIEIEPPGEKREIMIPFSWDEARELLKDLGLEVEVDPESPTFEFKLPNYQIKVEFMPIPPGQMSAG [r5_248_TrROS] | 3.6 ± 0.049 | 2.34 ± 0.12 | 3.21 ± 0.12
19 | LKITLPDGAEITEITSVSVLPNGTIKITVKVRNPATGETTTVTLTITLKPAPPPEVTIVRDAETGELKLVKS [r1_411_TrROS_Hall] | 2.14 ± 0.047 | 2.63 ± 0.1 | 2.49 ± 0.23
20 | SAGGSAGGSAGGSEEILDVKVDEKENTLVITTKLPSGGTTTKEIKVENVPPFPESNVKVSAGGSAGGSAGGS [r4_372_JUSTAS] | 0.31 ± 0.036 | -0.536 ± 0.072 | 0.0453 ± 0.14
21 | SAGGMKIKDFEPVRVDENGMYVIDLKYEDPDNGNEYQVEFMIPNPPGNMHPITFTMKSPEDALDEILKSAGG [r13_26_TrROS] | -0.325 ± 0.28 | -0.845 ± 0.27 | -0.445 ± 0.13
